This test relates to melanoma. The test is described as follows: Treatment of patients with melanoma. In kind it is in vivo. As to the method: 100 patients are diagnosed with melanoma and subject to IL-12 recombinant protein injection at the tumor site. Patients receive either vehicle injections, 250 ng/kg/day of IL-12 or 500 ng/kg/day of IL-12 per treatment every three days for a week. […] By 5 years post-surgery, 40% of the patients who undergo IL-12 therapy have a relapse of […], and have 60% survival rate.
100 patients are diagnosed with melanoma and are administered genetically modified stem cells expressing IL-12 by intracavitary infusion. Tumor size is monitored by PET scan, and at the end of six months, the tumor size is reduced.

B1: IL-12: IL-12 recombinant protein injected at the tumor site (protein, listed as Homo sapiens)
chain 1: MCHQQLVISWFSLVFLASPLVAIWELKKDVYVVELDWYPDAPGEMVVLTCDTPEEDGITWTLDQSSEVLGSGKTLTIQVKEFGDAGQYTCHKGGEVLSHSLLLLHKKEDGIWSTDILKDQKEPKNKTFLRCEAKNYSGRFTCWWLTTISTDLTFSVKSSRGSSDPQGVTCGAATLSAERVRGDNKEYEYSVECQEDSACPAAEESLPIEVMVDAVHKLKYENYTSSFFIRDIIKPDPPKNLQLKPLKNSRQVEVSWEYPDTWSTPHSYFSLTFCVQVQGKSKREKKDRVFTDKTSATVICRKNASISVRAQDRYYSSSWSEWASVPCS
chain 2: MWPPGSASQPPPSPAAATGLHPAARPVSLQCRLSMCPARSLLLVATLVLLDHLSLARNLPVATPDPGMFPCLHHSQNLLRAVSNMLQKARQTLEFYPCTSEEIDHEDITKDKTSTVEACLPLELTKNESCLNSRETSFITNGSCLASRKTSFMMALCLSSIYEDLKMYQVEFKTMNAKLLMDPKRQIFLDQNMLAVIDELMQALNFNSETVPQKSSLEEPDFYKTKIKLCILLHAFRIRAVTIDRVMSYLNAS
For the molecule B1, where the note is “500 ng/kg/day versus 250 ng/kg/day or vehicle”, the “tumor size by PET scan, higher dose” value was “greater reduction in tumor size than the lower dose or vehicle injected patients”. Besides, the “tumor size by PET scan” value (IL-12 recombinant protein injection at the tumor site, 250 or 500 ng/kg/day every three days for a week, versus vehicle) is given as “reduced tumor size”. For the setting “by 5 years”, this molecule returned a patients with relapse of 40% and a survival rate of 60%. For the same molecule, where the note is “versus vehicle injections”, the “T cell activation and immune cell infiltration in biopsies of injected lesions” value is “more T cell activation and immune cell infiltration”.
